Laboratory results reported in the supplement of paper PMC9112550, “Optimization of the antimicrobial peptide Bac7 by deep mutational scanning” (BMC Biology, 2022).
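Note: peptides expressed intracellularly from a pBAD plasmid library in pooled LB shake-flask culture, induced with 0.3% L-arabinose, DNA abundance read by NGS, three biological replicates, DESeq2 with apeglm shrinkage.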

Each sequence was assayed on Escherichia coli TOP10 (assay: shrunken log2 fold change of peptide-encoding DNA abundance (4.5 h post-induction vs induction); higher = less antimicrobial activity (less host growth inhibition)). Details: time post-induction: 4.5 h; library: site-saturation at positions 5, 18, 19, 20.
RRIRTRPPRLPRPRPRPAAEPRP was tested, and the “shrunken log2 fold change” value was 0.351. In the case of RRIRPRPPRLPRPRPRPGRHPRP, the “shrunken log2 fold change” value was -0.166. RRIRYRPPRLPRPRPRPLDRPRP was tested, and the “shrunken log2 fold change” value was -0.182. RRIRKRPPRLPRPRPRPNIHPRP was tested, and the “shrunken log2 fold change” value was -0.112. In the case of RRIRFRPPRLPRPRPRPYHGPRP, the “shrunken log2 fold change” value was -0.114. In the case of RRIRDRPPRLPRPRPRPSRVPRP, the “shrunken log2 fold change” value was 0.0593. In the case of RRIRQRPPRLPRPRPRPHERPRP, the “shrunken log2 fold change” value was 0.158. With RRIRMRPPRLPRPRPRPAIDPRP the “shrunken log2 fold change” value was 0.718. With RRIRPRPPRLPRPRPRPSFKPRP the “shrunken log2 fold change” value was -0.123. In the case of RRIRNRPPRLPRPRPRPLACPRP, the “shrunken log2 fold change” value was 0.118. For RRIRGRPPRLPRPRPRPIQIPRP, the “shrunken log2 fold change” value was -0.0799. For RRIRKRPPRLPRPRPRPHKMPRP, the “shrunken log2 fold change” value was 0.105. For RRIRSRPPRLPRPRPRPAESPRP, the “shrunken log2 fold change” value was -0.04. In the case of RRIRRRPPRLPRPRPRPHGNPRP, the “shrunken log2 fold change” value was 0.166. In the case of RRIRWRPPRLPRPRPRPFCIPRP, the “shrunken log2 fold change” value was -0.293. RRIRARPPRLPRPRPRPRYNPRP was tested, and the “shrunken log2 fold change” value was -0.487. RRIRLRPPRLPRPRPRPYTVPRP was tested, and the “shrunken log2 fold change” value was -0.121. With RRIRKRPPRLPRPRPRPIWIPRP the “shrunken log2 fold change” value was -0.0325. For RRIRERPPRLPRPRPRPHCEPRP, the “shrunken log2 fold change” value was -0.056. RRIRPRPPRLPRPRPRPHTVPRP was tested, and the “shrunken log2 fold change” value was -0.214. For RRIRARPPRLPRPRPRPETAPRP, the “shrunken log2 fold change” value was 0.236. For RRIRMRPPRLPRPRPRPLNQPRP, the “shrunken log2 fold change” value was -0.0442. With RRIRERPPRLPRPRPRPRKKPRP the “shrunken log2 fold change” value was -0.111. RRIRPRPPRLPRPRPRPIYFPRP was tested, and the “shrunken log2 fold change” value was -0.205. For RRIRSRPPRLPRPRPRPGPEPRP, the “shrunken log2 fold change” value was 0.221. With RRIRPRPPRLPRPRPRPAPTPRP the “shrunken log2 fold change” value was 0.704. With RRIRSRPPRLPRPRPRPSNRPRP the “shrunken log2 fold change” value was -0.114. With RRIRERPPRLPRPRPRPNEGPRP the “shrunken log2 fold change” value was -0.0857. For RRIRARPPRLPRPRPRPVTAPRP, the “shrunken log2 fold change” value was 0.654. In the case of RRIRPRPPRLPRPRPRPTVFPRP, the “shrunken log2 fold change” value was 0.0272. For RRIRMRPPRLPRPRPRPDQFPRP, the “shrunken log2 fold change” value was -0.00541. RRIRWRPPRLPRPRPRPDGHPRP was tested, and the “shrunken log2 fold change” value was 0.0237. RRIRFRPPRLPRPRPRPMTAPRP was tested, and the “shrunken log2 fold change” value was -0.00148. RRIRYRPPRLPRPRPRPVKFPRP was tested, and the “shrunken log2 fold change” value was -0.133. With RRIRLRPPRLPRPRPRPKDLPRP the “shrunken log2 fold change” value was -0.242. RRIRLRPPRLPRPRPRPHNYPRP was tested, and the “shrunken log2 fold change” value was -0.749. In the case of RRIRIRPPRLPRPRPRPNDEPRP, the “shrunken log2 fold change” value was -0.781. For RRIRWRPPRLPRPRPRPWWGPRP, the “shrunken log2 fold change” value was 0.0568. In the case of RRIRARPPRLPRPRPRPFTMPRP, the “shrunken log2 fold change” value was -0.378. For RRIRGRPPRLPRPRPRPKLKPRP, the “shrunken log2 fold change” value was 0.862. In the case of RRIRPRPPRLPRPRPRPLEKPRP, the “shrunken log2 fold change” value was 0.261. With RRIRARPPRLPRPRPRPNIKPRP the “shrunken log2 fold change” value was -0.14. In the case of RRIRERPPRLPRPRPRPFCHPRP, the “shrunken log2 fold change” value was -0.0629. In the case of RRIRKRPPRLPRPRPRPQKLPRP, the “shrunken log2 fold change” value was 0.015. RRIRGRPPRLPRPRPRPDTEPRP was tested, and the “shrunken log2 fold change” value was -0.0629. RRIRIRPPRLPRPRPRPWDFPRP was tested, and the “shrunken log2 fold change” value was -0.11. RRIRTRPPRLPRPRPRPWPNPRP was tested, and the “shrunken log2 fold change” value was -0.124. In the case of RRIRRRPPRLPRPRPRPWSGPRP, the “shrunken log2 fold change” value was 0.0397. For RRIRWRPPRLPRPRPRPGVDPRP, the “shrunken log2 fold change” value was 0.371. With RRIRLRPPRLPRPRPRPIVCPRP the “shrunken log2 fold change” value was 0.0348. In the case of RRIRMRPPRLPRPRPRPQLSPRP, the “shrunken log2 fold change” value was -0.102. With RRIRLRPPRLPRPRPRPQPKPRP the “shrunken log2 fold change” value was 0.172. For RRIRMRPPRLPRPRPRPAILPRP, the “shrunken log2 fold change” value was 0.467. In the case of RRIRARPPRLPRPRPRPSPYPRP, the “shrunken log2 fold change” value was -0.333. For RRIRARPPRLPRPRPRPYWVPRP, the “shrunken log2 fold change” value was -0.57. RRIRDRPPRLPRPRPRPQDQPRP was tested, and the “shrunken log2 fold change” value was -0.144. With RRIRNRPPRLPRPRPRPTAWPRP the “shrunken log2 fold change” value was -0.0125. RRIRPRPPRLPRPRPRPEYNPRP was tested, and the “shrunken log2 fold change” value was -0.624. In the case of RRIRARPPRLPRPRPRPWPEPRP, the “shrunken log2 fold change” value was 0.245. With RRIRTRPPRLPRPRPRPKEQPRP the “shrunken log2 fold change” value was 0.0592. In the case of RRIRTRPPRLPRPRPRPKQVPRP, the “shrunken log2 fold change” value was -0.0584. RRIRMRPPRLPRPRPRPAGPPRP was tested, and the “shrunken log2 fold change” value was 0.484. In the case of RRIRDRPPRLPRPRPRPNIIPRP, the “shrunken log2 fold change” value was -0.117. With RRIRDRPPRLPRPRPRPRWGPRP the “shrunken log2 fold change” value was 0.471. RRIRTRPPRLPRPRPRPYDTPRP was tested, and the “shrunken log2 fold change” value was -0.661. In the case of RRIRLRPPRLPRPRPRPRGRPRP, the “shrunken log2 fold change” value was 0.149. For RRIRRRPPRLPRPRPRPKRRPRP, the “shrunken log2 fold change” value was 0.525. For RRIRCRPPRLPRPRPRPDWIPRP, the “shrunken log2 fold change” value was -0.159. With RRIRMRPPRLPRPRPRPAVGPRP the “shrunken log2 fold change” value was 0.5. With RRIRGRPPRLPRPRPRPCIEPRP the “shrunken log2 fold change” value was 0.0449. With RRIRFRPPRLPRPRPRPKRPPRP the “shrunken log2 fold change” value was 0.755. In the case of RRIRRRPPRLPRPRPRPMDLPRP, the “shrunken log2 fold change” value was 0.0641. RRIRSRPPRLPRPRPRPPVEPRP was tested, and the “shrunken log2 fold change” value was -0.0919. With RRIRSRPPRLPRPRPRPKFYPRP the “shrunken log2 fold change” value was -0.371. With RRIRCRPPRLPRPRPRPGDTPRP the “shrunken log2 fold change” value was -0.0505.
